From patent US20150218239A1 (ARGENX, published 2015)
Substitutions are numbered along the chain they refer to. Numbers in names are those of the source. Blank lines part the entries; values can stand above or below the binder they belong to.

Tests used:
[1] = biological target: T1, biotinylated hCD16a (Sino Biological Inc., 10389-H27H1-B) (human, UniProt P08637 17-208, biotinylated); experiment: ELISA on biotinylated hCD16a captured on neutravidin; anti-human Fc-HRP detection
T1 construct: Bought reagent, captured on a neutravidin-coated plate; also called human CD16a
T1 sequence (P08637 17-208 limits assumed): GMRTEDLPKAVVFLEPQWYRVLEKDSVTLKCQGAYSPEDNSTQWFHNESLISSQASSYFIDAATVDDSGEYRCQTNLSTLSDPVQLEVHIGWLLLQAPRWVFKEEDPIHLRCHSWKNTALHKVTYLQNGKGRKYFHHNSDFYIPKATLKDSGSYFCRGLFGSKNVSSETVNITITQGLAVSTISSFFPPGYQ
Procedure: (§1) Specifically, a Maxisorp plate was coated with 100 ng/well of Neutravidin Biotin-binding Protein (ThermoScientific, 31000) and incubated overnight at 4° C. The following day, the plate was blocked with PBS+1% casein for 2 hours at room temperature. […] Binding to hCD16a was detected using an HRP-conjugated polyclonal goat anti-human Fc antibody (Jackson ImmunoResearch, 109-035-008) (incubation 1 hour at RT, dilution 1/50,000 in PBS+0.1% casein), followed by addition of […] room temperature-equilibrated TMB (SDT-reagents #s TMB). Plates were incubated for 10 minutes prior to addition of 100 μl 0.5N H₂SO₄ and OD450 nm measurement. EC50 values were determined using GraphPad Prism software.

[2] = biological target: T2, murine CD16-2 (Sino Biological Inc., 50036-M27H-B) (murine, UniProt A0A0B4J1G0 21-203, Probably biotinylated on a vendor tag (suffix -B); not given); experiment: ELISA on murine CD16-2, similar procedure to the hCD16a ELISA
T2 construct: Bought reagent, used in 'a similar experimental procedure' to the hCD16a ELISA; also called mCD16-2
T2 sequence: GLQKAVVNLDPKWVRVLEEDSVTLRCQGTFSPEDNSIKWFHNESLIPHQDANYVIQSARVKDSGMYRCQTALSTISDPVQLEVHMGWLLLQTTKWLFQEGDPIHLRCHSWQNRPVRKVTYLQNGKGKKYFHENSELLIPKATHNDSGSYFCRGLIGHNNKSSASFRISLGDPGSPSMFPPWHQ
Procedure: as §1
Using a similar experimental procedure as described above, the binding affinity for murine CD16-2 (Sino Biological Inc., 50036-M27H-B) was determined.

EC50 [1]: 13 nM | fold increase in affinity over fucosylated Fc-Abdeg [1]: > 30 fold | EC50 [2]: 11 nM
B1: Fc-Abdeg-POT (other)
chain: DKTHTCPPCPAPELLGGPSVFLFPPKPKDTLYITREPEVTCVVVDVSHEDPEVKFNWYVDGVEVHNAKTKPREEQYNSTYRVVSVLTVLHQDWLNGKEYKCKVSNKALPAPIEKTISKAKGQPREPQVYTLPPSRDELTKNQVSLTCLVKGFYPSDIAVEWESNGQPENNYKTTPPVLDSDGSFFLYSKLTVDKSRWQQGNVFSCSVMHEALKFHYTQKSLSLSPGK
modifications: afucosylated N-linked glycan (afucosylated form of Fc-Abdeg)
notes: also called afucosylated form of Fc-Abdeg; afucosylated variant

EC50 [1]: 6 nM
B2: Fc-Abdeg-S239D/I332E (other)
chain: B1 chain with S19D, I112E
notes: Fc-Abdeg variant
